The source of these data is the nanobody polyreactivity screen of Harvey et al. (2022).

This data set in a line: yeast display, Sf9 membrane polyspecificity reagent, FACS + sequencing; frameworks hold sequencing errors. The method in brief: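 Nanobodies from a synthetic yeast display library (Saccharomyces cerevisiae BJ5465), induced 36–48 hours with galactose, were stained 1 hour at 4 °C with 10% biotinylated, detergent-solubilized Sf9 membrane reagent, enriched on streptavidin microbeads, then FACS-sorted. Anti-HA (expression) and streptavidin (reagent binding) fluorescence set low and high (top ~1%) gates. Polyreactivity labels come from the gate of origin. Genes were colony-PCR amplified, MiSeq 2 × 250 sequenced and filtered by CDR length.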
Turning to “QVQLVESGGGLVQAGGSLRLSCAASGRTFAGYAMGWYRQPPGKERELVAAITSSGGTTYYADSVKGRFTISRDNAKNTVYLQMNILKPEDTAVYSCAADLTWIYRWQTYNYDYWGQGTQVTVSS”, the “polyreactivity (PSR sort gate)” value was “high polyreactivity”. On to “QVQLVESGGGLVQAGGSLRLSCAASGRTFAINAMGWSRQAPGKEWELVASIRWTDGTTYYADSVKGRFTISRDNAKNTVYLQMNSLKPEDTAVYYCAADAEGSASKYDYWGQGTQVTVSS”, for which the “polyreactivity (PSR sort gate)” value was “low polyreactivity”.

Regarding “QVQLVESGGGLVQAGGSLRLSCAASGRTFAINTMGWYRPAPGKEREFVASITRRGGSTYYADSVKWRFTISRDNAKNTVYLQMNSLKREDNAVYYCNAELRWRLPARAAYYYWGQGTQVTFSS”, the “polyreactivity (PSR sort gate)” value was “high polyreactivity”. Regarding “QVQLVESGGGLVQAGGSLRLSCAASGRTFAIYAMGWSRQAPGKERELVAAIRWRDGSTYYADSVKGRFTISRDNAKNTVYLQMNSLKPEDTAVYYCAATSRVYVRGSYWKYGYWGQGTQVTVSS”, the “polyreactivity (PSR sort gate)” value was “high polyreactivity”. As to “QVQLVESGGGLVQAGGSLRLSCAASGRTFAIYVMGWYRQAPGKERELVAAISRSGGNTYYADSVKGRFTISRDNAKNTVYLQMNSLKPEDTAVYYCAARVRERYYWGQGTQVTVSS”, the “polyreactivity (PSR sort gate)” value is “high polyreactivity”. With “QVQLVESGGGLVQAGGSLRLSCAASGRTFAKYAMGWYRQAPGKEREFVAAITRGDTTNYADSVKGRFTISRDNAKNTVYLQMNSLKPEDTAVYYCNADSLYYDYQTVDVQALDYWGQGTQVTVSS”, the “polyreactivity (PSR sort gate)” value was “low polyreactivity”.

As to “QVQLVESGGGLVQAGGSLRLSCAASGRTFALNAMGWYRQAPGKERELVAAISWSSGRTYYADSVKGRFTISRDNAKNKVYLQMNSLKPEDTAVYYCAALVAHKGDYWGQGTQVTVSS”, the “polyreactivity (PSR sort gate)” value was “high polyreactivity”.

“QVQLVESGGGLVQAGGSLRLSCAASGRTFALNAMGWYRQAPGKERELVAAISWSSGRTYYADSVKGRFTISRDNAKNTDYLKMNSLKPEDSAVYYCAALVAHKGDYWGQGTQVTVSS”: the “polyreactivity (PSR sort gate)” value was “high polyreactivity”. Regarding “QVQLVESGGGLVQAGGSLRLSCAASGRTFALYAMGWYRQAPGKERELVAAITFSGGSTSYADSVKGRFTISRDNAKYTVYLQMNSLKPEDTAVYYCAAYWYSLYYLYPYDYWGQGTQVTVSS”, the “polyreactivity (PSR sort gate)” value is listed as “low polyreactivity”.

With “QVQLVESGGGLVQAGGSLRLSCAASGRTFAPYAMGWYRQAPGKERELVARITWSGTDTYYADSVKGRFTISRDNAKNNVYLQMNSLKPEDTAVYYCAADARYSRRYYYWGQGTQVTVSS”, the “polyreactivity (PSR sort gate)” value is listed as “low polyreactivity”. As for “QVQLVESGGGLVQAGGSLRLSCAASGRTFAQYAMGWYRQAPGKERELVAGISRSGGSTYYADCVKGRFTISRDNAKNTVYLQMNSLKPEDTAVYYCAARWRGARWYYYWGQGTQVTVSS”, the entry is “high polyreactivity”.

With “QVQLVESGGGLVQAGGSLRLSCAASGRTFARNAMGWSRQAPGKERELVAAITRSGGSTYYADSVKGRFTISRDNAKNTVYLQMNSLKPEDTAVYYCAAVGTGSSLRYGYWGQGTQVTVSS”, the “polyreactivity (PSR sort gate)” value is “high polyreactivity”. With “QVQLVESGGGLVQAGGSLRLSCAASGRTFARNAMGWYRQAPGKERELVAAISSSGGSTYYADSVKGRFTISRDNAKNTVYLQMNSLKPEDTAVYYCARYSSFTYDYWGQGTQVTVSS”, the “polyreactivity (PSR sort gate)” value is recorded as “high polyreactivity”.

Consider “QVQLVESGGGLVQAGGSLRLSCAASGRTFARYAMGSYRQAPGKERELDAAITSGGSTNYADSVKGRFTISRDNAKNTVYLQMNSLKPEDTAVYYCNARRRAPKGPIPAGNYWGQGTQVTVSS”, for which the “polyreactivity (PSR sort gate)” value was “high polyreactivity”.

“QVQLVESGGGLVQAGGSLRLSCAASGRTFARYAMGWYRQAPGKERELVAAISSGGSTYYADSVKGRFTISRDNAKNTVYLQMNSLKPEDTAVYYCAAEWHYIYAYDYWGQGTQVTVSS”: the “polyreactivity (PSR sort gate)” value is on record as “low polyreactivity”. As for “QVQLVESGGGLVQAGGSLRLSCAASGRTFARYVMGWYRQAPGKERELVAAINSGGNTYYADSVKGRFTISRDNAKNTVYLQMNSLKPEDTAVYYCAVKAARTYYWGQGTQVTVSS”, the entry is “high polyreactivity”; as for “QVQLVESGGGLVQAGGSLRLSCAASGRTFARYVMGWYRQAPGKERELVAAISGGGGSTYYADSVKGRFTISRDNAKNTVYLQMNSLKPEDTAVYYCAAVPEGPNTGDDANGLDYWGQGTQVTVSS”, “low polyreactivity”. With “QVQLVESGGGLVQAGGSLRLSCAASGRTFATYAMAWYRQAPGKERELVAAISRSGSTTYYADSVKGRFTISRDNAKNTVYLQMNSLKPEDTAVYYCNAKFRKADYDYWGQGTQVTVSS”, the “polyreactivity (PSR sort gate)” value is recorded as “high polyreactivity”. “QVQLVESGGGLVQAGGSLRLSCAASGRTFATYAMGWYRQAPGKERELVAAITSGGSTYYADSVKGRFTISRDNAKNTVYLQMNSLKPEDTAVYYCAAARKYYGYNYWGQGTQVTVSS”: the “polyreactivity (PSR sort gate)” value is listed as “high polyreactivity”.

As for “QVQLVESGGGLVQAGGSLRLSCAASGRTFAVNALGWYRQAPGKERELVAAIRTGSTYYADSVKGRFTISRDNAKNTVYLQMNSLKPEDTAVYFCAAPYRADSYDYWGQGTQVTVSS”, the “polyreactivity (PSR sort gate)” value is recorded as “high polyreactivity”.

On to “QVQLVESGGGLVQAGGSLRLSCAASGRTFAVNGKGWYRPAPGKERELVAAISSGGSTNYADSVKARFTISRDNAKNTVYLQLNSLKPEDTAVYYCAADYTRAHISYYYWGQGTQVTVSS”, for which the “polyreactivity (PSR sort gate)” value is listed as “high polyreactivity”. Turning to “QVQLVESGGGLVQAGGSLRLSCAASGRTFAVYAMGWYRQAPGKERELVAAISYSGDSTYYADSVKGRFTISRDNAKYTVYLQMNSLKPEDTAVYYCAADFLVGLTAVAYEYWGQGTQVTVSS”, the “polyreactivity (PSR sort gate)” value is listed as “low polyreactivity”. Take “QVQLVESGGGLVQAGGSLRLSCAASGRTFAVYAMGWYRQAPGKERELVAAITYGGGRTSYADSVKGRFTISRDYAKNTVYFQMKRLKPEDTAVYSCAADYYGTDYDYWGQGTQVTVSS”: the “polyreactivity (PSR sort gate)” value was “low polyreactivity”.

In the case of “QVQLVESGGGLVQAGGSLRLSCAASGRTFAWNTMGWYRQAPGKERELLAAISGSGGSTYYADSVKGRFTISRDYAKNTVYLQMNSLKPEDTAVYYCARRVDSYYGHTLYYYWGQGTQVTVSS”, the “polyreactivity (PSR sort gate)” value was “high polyreactivity”. Turning to “QVQLVESGGGLVQAGGSLRLSCAASGRTFAWYTMGWSRQEPGKERELVAAISGSGGSTYYADSVKGRFTISRDNAKNTVYLQMNSLKPEDTAVYYCARRVDSYYGHTRYYYWGQGTQVTVSS”, the “polyreactivity (PSR sort gate)” value is reported as “high polyreactivity”. In the case of “QVQLVESGGGLVQAGGSLRLSCAASGRTFAWYTMGWYRKAPGKERELVAAISGSGGSTYYADSVKGRFTISRDNAKNTVYLQMNSLKPEDSAVYYCARRVDSYYGHTRYYYWGQGTQITVSS”, the “polyreactivity (PSR sort gate)” value is listed as “high polyreactivity”.

As for “QVQLVESGGGLVQAGGSLRLSCAASGRTFAYNAMGWYIQAPGKERELVASITSGGSTNYADSVKGRFTISRDNAKNTVYLQMNSLKPEDTAVYYCNKDGKYHRVLYDYWGQGTQVTVSS”, the “polyreactivity (PSR sort gate)” value is reported as “low polyreactivity”. As to “QVQLVESGGGLVQAGGSLRLSCAASGRTFAYNAMGWYRQAPGKEREFVAGISRSGGSTYYADSVKGRFTISRDNAKNTVYLQMNSLKPEDTAVYYCAAQFYALPNVGTKYYSWGQGTQVTVSS”, the “polyreactivity (PSR sort gate)” value is on record as “low polyreactivity”. On to “QVQLVESGGGLVQAGGSLRLSCAASGRTFAYNAMGWYRQAPGKERELVAAISRSGTITYYADSVKGRFTISRDNAKNTVYLQMNSLKPEDTAVYYCNKASTYPSYDYWGQGTQVTVSS”, for which the “polyreactivity (PSR sort gate)” value is reported as “high polyreactivity”. “QVQLVESGGGLVQAGGSLRLSCAASGRTFAYNDMGWYRQAPGKERELGAAISWSDGTTYYADSVKGRFTISRDNAKNTVYLQMYSLKPEDTAVYYCNADDYLTSIYRYDYWGQGTQVTVSS”: the “polyreactivity (PSR sort gate)” value is on record as “low polyreactivity”.
